T1: β-casein, P02666
T1 chain: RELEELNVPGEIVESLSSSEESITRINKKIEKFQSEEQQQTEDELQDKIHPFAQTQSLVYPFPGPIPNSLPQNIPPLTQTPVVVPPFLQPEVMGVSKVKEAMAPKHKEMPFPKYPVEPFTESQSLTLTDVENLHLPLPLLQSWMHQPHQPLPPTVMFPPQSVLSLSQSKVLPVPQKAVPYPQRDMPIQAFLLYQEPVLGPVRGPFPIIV


Biological target: T1, β-casein, P02666
Conditions: scale: % cleavage of non-glycosylated camel chymosin

Protein	β(193-209): cleavage of β-casein at position 192/193
camel chymosin variant 293 (Y190A+N100Q+N291Q) (protein) GKVAREPLTSYLDSQYFGKIYIGTPPQEFTVVFDTGSSDLWVPSIYCKSNVCKNHHRFDPRKSSTFRNLGKPLSIHYGTGSMEGFLGYDTVTVSNIVDPQQTVGLSTEQPGEVFTYSEFDGILGLAYPSLASEYSVPVFDNMMDRHLVARDLFSVYMDRNGQGSMLTLGAIDPSYYTGSLHWVPVTLQQAWQFTVDSVTINGVAVACVGGCQAILDTGTSVLFGPSSDILKIQMAIGATENRYGEFDVNCGNLRSMPTVVFEINGRDYPLSPSAYTSKDQGFCTSGFQGDQNSELWILGDVFIREYYSVFDRANNRVGLAKAI	28
camel chymosin variant 295 (H76Q+N100Q+N291Q) (protein) GKVAREPLTSYLDSQYFGKIYIGTPPQEFTVVFDTGSSDLWVPSIYCKSNVCKNHHRFDPRKSSTFRNLGKPLSIQYGTGSMEGFLGYDTVTVSNIVDPQQTVGLSTEQPGEVFTYSEFDGILGLAYPSLASEYSVPVFDNMMDRHLVARDLFSVYMDRNGQGSMLTLGAIDPSYYTGSLHWVPVTLQQYWQFTVDSVTINGVAVACVGGCQAILDTGTSVLFGPSSDILKIQMAIGATENRYGEFDVNCGNLRSMPTVVFEINGRDYPLSPSAYTSKDQGFCTSGFQGDQNSELWILGDVFIREYYSVFDRANNRVGLAKAI	48
camel chymosin variant 296 (S273Y+N100Q+N291Q) (protein) GKVAREPLTSYLDSQYFGKIYIGTPPQEFTVVFDTGSSDLWVPSIYCKSNVCKNHHRFDPRKSSTFRNLGKPLSIHYGTGSMEGFLGYDTVTVSNIVDPQQTVGLSTEQPGEVFTYSEFDGILGLAYPSLASEYSVPVFDNMMDRHLVARDLFSVYMDRNGQGSMLTLGAIDPSYYTGSLHWVPVTLQQYWQFTVDSVTINGVAVACVGGCQAILDTGTSVLFGPSSDILKIQMAIGATENRYGEFDVNCGNLRSMPTVVFEINGRDYPLSPYAYTSKDQGFCTSGFQGDQNSELWILGDVFIREYYSVFDRANNRVGLAKAI	58
camel chymosin variant 299 (L222I+N100Q+N291Q) (protein) GKVAREPLTSYLDSQYFGKIYIGTPPQEFTVVFDTGSSDLWVPSIYCKSNVCKNHHRFDPRKSSTFRNLGKPLSIHYGTGSMEGFLGYDTVTVSNIVDPQQTVGLSTEQPGEVFTYSEFDGILGLAYPSLASEYSVPVFDNMMDRHLVARDLFSVYMDRNGQGSMLTLGAIDPSYYTGSLHWVPVTLQQYWQFTVDSVTINGVAVACVGGCQAILDTGTSVIFGPSSDILKIQMAIGATENRYGEFDVNCGNLRSMPTVVFEINGRDYPLSPSAYTSKDQGFCTSGFQGDQNSELWILGDVFIREYYSVFDRANNRVGLAKAI	54
camel chymosin variant 303 (L130I+N100Q+N291Q) (protein) GKVAREPLTSYLDSQYFGKIYIGTPPQEFTVVFDTGSSDLWVPSIYCKSNVCKNHHRFDPRKSSTFRNLGKPLSIHYGTGSMEGFLGYDTVTVSNIVDPQQTVGLSTEQPGEVFTYSEFDGILGLAYPSIASEYSVPVFDNMMDRHLVARDLFSVYMDRNGQGSMLTLGAIDPSYYTGSLHWVPVTLQQYWQFTVDSVTINGVAVACVGGCQAILDTGTSVLFGPSSDILKIQMAIGATENRYGEFDVNCGNLRSMPTVVFEINGRDYPLSPSAYTSKDQGFCTSGFQGDQNSELWILGDVFIREYYSVFDRANNRVGLAKAI	29
camel chymosin variant 304 (S132A+N100Q+N291Q) (protein) GKVAREPLTSYLDSQYFGKIYIGTPPQEFTVVFDTGSSDLWVPSIYCKSNVCKNHHRFDPRKSSTFRNLGKPLSIHYGTGSMEGFLGYDTVTVSNIVDPQQTVGLSTEQPGEVFTYSEFDGILGLAYPSLAAEYSVPVFDNMMDRHLVARDLFSVYMDRNGQGSMLTLGAIDPSYYTGSLHWVPVTLQQYWQFTVDSVTINGVAVACVGGCQAILDTGTSVLFGPSSDILKIQMAIGATENRYGEFDVNCGNLRSMPTVVFEINGRDYPLSPSAYTSKDQGFCTSGFQGDQNSELWILGDVFIREYYSVFDRANNRVGLAKAI	28
camel chymosin variant 305 (S226T+N100Q+N291Q) (protein) GKVAREPLTSYLDSQYFGKIYIGTPPQEFTVVFDTGSSDLWVPSIYCKSNVCKNHHRFDPRKSSTFRNLGKPLSIHYGTGSMEGFLGYDTVTVSNIVDPQQTVGLSTEQPGEVFTYSEFDGILGLAYPSLASEYSVPVFDNMMDRHLVARDLFSVYMDRNGQGSMLTLGAIDPSYYTGSLHWVPVTLQQYWQFTVDSVTINGVAVACVGGCQAILDTGTSVLFGPTSDILKIQMAIGATENRYGEFDVNCGNLRSMPTVVFEINGRDYPLSPSAYTSKDQGFCTSGFQGDQNSELWILGDVFIREYYSVFDRANNRVGLAKAI	44
camel chymosin variant 306 (G251D+N100Q+N291Q) (protein) GKVAREPLTSYLDSQYFGKIYIGTPPQEFTVVFDTGSSDLWVPSIYCKSNVCKNHHRFDPRKSSTFRNLGKPLSIHYGTGSMEGFLGYDTVTVSNIVDPQQTVGLSTEQPGEVFTYSEFDGILGLAYPSLASEYSVPVFDNMMDRHLVARDLFSVYMDRNGQGSMLTLGAIDPSYYTGSLHWVPVTLQQYWQFTVDSVTINGVAVACVGGCQAILDTGTSVLFGPSSDILKIQMAIGATENRYGEFDVNCDNLRSMPTVVFEINGRDYPLSPSAYTSKDQGFCTSGFQGDQNSELWILGDVFIREYYSVFDRANNRVGLAKAI	88
camel chymosin variant 307 (Y243E+N100Q+N291Q) (protein) GKVAREPLTSYLDSQYFGKIYIGTPPQEFTVVFDTGSSDLWVPSIYCKSNVCKNHHRFDPRKSSTFRNLGKPLSIHYGTGSMEGFLGYDTVTVSNIVDPQQTVGLSTEQPGEVFTYSEFDGILGLAYPSLASEYSVPVFDNMMDRHLVARDLFSVYMDRNGQGSMLTLGAIDPSYYTGSLHWVPVTLQQYWQFTVDSVTINGVAVACVGGCQAILDTGTSVLFGPSSDILKIQMAIGATENREGEFDVNCGNLRSMPTVVFEINGRDYPLSPSAYTSKDQGFCTSGFQGDQNSELWILGDVFIREYYSVFDRANNRVGLAKAI	62
camel chymosin variant 308 (S273D+N100Q+N291Q) (protein) GKVAREPLTSYLDSQYFGKIYIGTPPQEFTVVFDTGSSDLWVPSIYCKSNVCKNHHRFDPRKSSTFRNLGKPLSIHYGTGSMEGFLGYDTVTVSNIVDPQQTVGLSTEQPGEVFTYSEFDGILGLAYPSLASEYSVPVFDNMMDRHLVARDLFSVYMDRNGQGSMLTLGAIDPSYYTGSLHWVPVTLQQYWQFTVDSVTINGVAVACVGGCQAILDTGTSVLFGPSSDILKIQMAIGATENRYGEFDVNCGNLRSMPTVVFEINGRDYPLSPDAYTSKDQGFCTSGFQGDQNSELWILGDVFIREYYSVFDRANNRVGLAKAI	66
camel chymosin variant 270 (V32L+N100Q+N291Q) (protein) GKVAREPLTSYLDSQYFGKIYIGTPPQEFTVLFDTGSSDLWVPSIYCKSNVCKNHHRFDPRKSSTFRNLGKPLSIHYGTGSMEGFLGYDTVTVSNIVDPQQTVGLSTEQPGEVFTYSEFDGILGLAYPSLASEYSVPVFDNMMDRHLVARDLFSVYMDRNGQGSMLTLGAIDPSYYTGSLHWVPVTLQQYWQFTVDSVTINGVAVACVGGCQAILDTGTSVLFGPSSDILKIQMAIGATENRYGEFDVNCGNLRSMPTVVFEINGRDYPLSPSAYTSKDQGFCTSGFQGDQNSELWILGDVFIREYYSVFDRANNRVGLAKAI	28
camel chymosin variant 272 (D290E+N100Q+N291Q) (protein) GKVAREPLTSYLDSQYFGKIYIGTPPQEFTVVFDTGSSDLWVPSIYCKSNVCKNHHRFDPRKSSTFRNLGKPLSIHYGTGSMEGFLGYDTVTVSNIVDPQQTVGLSTEQPGEVFTYSEFDGILGLAYPSLASEYSVPVFDNMMDRHLVARDLFSVYMDRNGQGSMLTLGAIDPSYYTGSLHWVPVTLQQYWQFTVDSVTINGVAVACVGGCQAILDTGTSVLFGPSSDILKIQMAIGATENRYGEFDVNCGNLRSMPTVVFEINGRDYPLSPSAYTSKDQGFCTSGFQGEQNSELWILGDVFIREYYSVFDRANNRVGLAKAI	60
camel chymosin variant 275 (R242Q+N100Q+N291Q) (protein) GKVAREPLTSYLDSQYFGKIYIGTPPQEFTVVFDTGSSDLWVPSIYCKSNVCKNHHRFDPRKSSTFRNLGKPLSIHYGTGSMEGFLGYDTVTVSNIVDPQQTVGLSTEQPGEVFTYSEFDGILGLAYPSLASEYSVPVFDNMMDRHLVARDLFSVYMDRNGQGSMLTLGAIDPSYYTGSLHWVPVTLQQYWQFTVDSVTINGVAVACVGGCQAILDTGTSVLFGPSSDILKIQMAIGATENQYGEFDVNCGNLRSMPTVVFEINGRDYPLSPSAYTSKDQGFCTSGFQGDQNSELWILGDVFIREYYSVFDRANNRVGLAKAI	74
camel chymosin variant 276 (G289S+N100Q+N291Q) (protein) GKVAREPLTSYLDSQYFGKIYIGTPPQEFTVVFDTGSSDLWVPSIYCKSNVCKNHHRFDPRKSSTFRNLGKPLSIHYGTGSMEGFLGYDTVTVSNIVDPQQTVGLSTEQPGEVFTYSEFDGILGLAYPSLASEYSVPVFDNMMDRHLVARDLFSVYMDRNGQGSMLTLGAIDPSYYTGSLHWVPVTLQQYWQFTVDSVTINGVAVACVGGCQAILDTGTSVLFGPSSDILKIQMAIGATENRYGEFDVNCGNLRSMPTVVFEINGRDYPLSPSAYTSKDQGFCTSGFQSDQNSELWILGDVFIREYYSVFDRANNRVGLAKAI	51
camel chymosin variant 280 (D290L+N100Q+N291Q) (protein) GKVAREPLTSYLDSQYFGKIYIGTPPQEFTVVFDTGSSDLWVPSIYCKSNVCKNHHRFDPRKSSTFRNLGKPLSIHYGTGSMEGFLGYDTVTVSNIVDPQQTVGLSTEQPGEVFTYSEFDGILGLAYPSLASEYSVPVFDNMMDRHLVARDLFSVYMDRNGQGSMLTLGAIDPSYYTGSLHWVPVTLQQYWQFTVDSVTINGVAVACVGGCQAILDTGTSVLFGPSSDILKIQMAIGATENRYGEFDVNCGNLRSMPTVVFEINGRDYPLSPSAYTSKDQGFCTSGFQGLQNSELWILGDVFIREYYSVFDRANNRVGLAKAI	58
camel chymosin variant 282 (Q280E+N100Q+N291Q) (protein) GKVAREPLTSYLDSQYFGKIYIGTPPQEFTVVFDTGSSDLWVPSIYCKSNVCKNHHRFDPRKSSTFRNLGKPLSIHYGTGSMEGFLGYDTVTVSNIVDPQQTVGLSTEQPGEVFTYSEFDGILGLAYPSLASEYSVPVFDNMMDRHLVARDLFSVYMDRNGQGSMLTLGAIDPSYYTGSLHWVPVTLQQYWQFTVDSVTINGVAVACVGGCQAILDTGTSVLFGPSSDILKIQMAIGATENRYGEFDVNCGNLRSMPTVVFEINGRDYPLSPSAYTSKDEGFCTSGFQGDQNSELWILGDVFIREYYSVFDRANNRVGLAKAI	85

Source: patent US20180187179
